Assay: label from the status in PepcDB records
With “MSQTRDLQGGKAFGLLKAQQEERLDEINKQFLDDPKYSSDEDLPSKLEGFKEKYMEFDLNGNGDIDIMSLKRMLEKLGVPKTHLELKKLIGEVSSGSGETFSYPDFLRMMLGKRSAILKMILMYEEKAREKEKPTGPPAKKAISELP” the protein production was “failed”. In the case of “MSQVSIIIPTLNEAASLGRTLRQLTLLNPPAKEVIVVDGGSEDETIAIAKQNFESFRQATGVQVIFCERRGRSVQMNYGALSATGDILCFLHADTWVPDDLVAVIEKTLAETKVSCGGFISLMTGSQTTRWGISLHNYLKTYYAPLLFKPHLFFQGLRLLFGDQVMFCRRNDFWDCGGFNEELPIMEDGDLCLKLVQKGRIALVNRIVQSSDRRVARWGSWKATAIYLYIGVLWGIGVDANYLKQFYQDIRLEHHHHHH”, the protein production was “not failed”. With “MSQVSTEFIPTRIAILTVSNRRGEEDDTSGHYLRDSAQEAGHHVVDKAIVKENRYAIRAQVSAWIASDDVQVVLITGGTGLTEGDQAPEALLPLFDREVEGFGEVFRMLSFEEIGTSTLQSRAVAGVANKTLIFAMPGSTKACRTAWENIIAPQLDARTRPCNFHPHLKK” the protein production was “not failed”. In the case of “MSRAANKLTNTAIKNATTEGKAQRKLADGGGLTLVVKPESKVWWLRYRYDGKERTLTLGAYPQTSLKEARAKRDEAKQLLAEGIDPVTHRATHKTKRVEATANTFKAVATEWLKEVHQKAVVEEHYNRNVRRLEQHAFPKLGRRPISEIEPSDILEPLRDIAKTGRRETAKRVKTLIGQVFRYTVSTGRAQRDMTADIRGILPASETKHHAAVVKPDEIADLLKRIDTYWGTPTVCMALELSPLLFLRPGELRTMKWEQIDWDDATWTTERTKNGEPLVVPLARQSIELLSQIQEVNGKWEWVFPGGHSKTKPMSNNAIRTALTRLELHGIMSAHGFRAMARTVLTERLGFRA”, the protein production was “failed”. In the case of “MSRADDVANLFQRFGASSDGYLETDNSLDYQESSVSSTPSVALQRATSQPSIEQPCAEQSAQNNAPAPDSITPDKTRRIAADTLAKLLAEAVQAREAEAQARNNEALAQSMGKEQLSRTPAHVIAVVSAKGGVGKSTLSAALTSLVKVPGGQTLAIDLDPQDALQHHLNASPDVAGLGGASLSGENWRALLLNGSADADTQLLAYGSLQLDERRSLERFQESDAHWLVRQIARMQLSARDVVILDVPCGDLLMLEQALNAASQVLVVLTADAACYLTLDQMQGWLEPVLAGPQPPVCHYVINQFDASRTFSRDMRDVMAKRLGGRLLGIVHKDNALAEALAYGHNAVQVPSASPGTQDLRVLSHLLITKLLTQDVEETRLS”, the protein production was “failed”. In the case of “MSRARSLFPEMSDFFAGLPSWASIRPVFGDHIIRIEDEMKDGGYELRAEVPGIDPAKDIDITVRDGVLTIKAERTEKKETNGRSEFAYGSFMRSVTLPPGADEDAIKAGYDKGILTISVPVTEPEAAAEKRVAVETVSPLEHHHHHH”, the protein production was “failed”. For “MSRDRLYTWAGLWRSPSSSWEALRLEDDQAESQLRAPDERSGLPYQLDYRLRWDADWHLREAVFHVESETGVRKLHLLADGRGHWQDGDGEALPAFDGCLDIDIWPSPFTNTFPIRRLGLADGQRAEIRALYIEAPALEPRSMRQAYTRLDASHYLYENLEGSAFKAVLLVDEQGLVIDYPGLFQRL”, the protein production was “not failed”. For “MSREKIEANREKILNGPIVPTLLVLAYPIIINQLVHVLYNLTDTFWLGKLGRIELSAPGTAWPLVWFLMSIGSGFVVAGFAFVSQYIGAGDYEKANRYAGALYSLLLIFATGMSIFGIVLAPYFLRFMKVSETIFPYALTYTRIIFAGIPFSFTLFAFNFLLRAIGDTKTPVKINIGTIILNIILDPFFIFGWGPFPRLGVAGAAIATMLSNSVGSLIGGYLLFTGKVGIHLTLENLKPDLKFYSRIFRVGLPSSIGDSTSALGFVVLTRVIFTVGRIYGEAHGIKGYEDVAFPTYSITNRLTNFMFAFSDGISMAMGTMVGQNIGARKYERAKEIAEKAMLINFTILSIGTLLFAIFRVPIFKFFVNDPMVIAESKKVVMYFSASLPFFGIFSAVNQVFNSAGHTKKSMVLGIIRLWILRIPLSYWLGVAMKDTAGMWLGMGLSNVIGALIGLAWFLKGSWLRGVIEEHH”, the protein production was “failed”. In the case of “MSRFRSLLQASVNATKKALTWNVEEWVPPAEKHIFKFHSKEDLKKWHLYSDSEYGGLSSASLEIPDKGDGSDCTGVFSGNLSVDLSEGSKWNISRSGFCGMRSKKFDGFIDLDGYDAIALRIRGDGRCYISTIYTENWVNSPGQSEDNSWQAFVFAPKDSWYTAKIPLARYLPTWRGNVIDVEMEMNPGRVLGMSLSVNAEGGAVGAKSGAGDFRVEIDWIKALRLP”, the protein production was “failed”. With “MSRKPRYSLALEVEPANPNEAYRHYMKKLSYETDIADLSIDIKKGYEGIIVVDVRDAEAYKECHIPTAISIPGNKINEDTTKRLSKEKVIITYCWGPACNGATKAAAKFAQLGFRVKELIGGIEYWRKENGEVEGTLGAKADLFWNMKKESKNKKSLDGSTQ” the protein production was “failed”. With “MSRKYFVGGNFKCNGTKESLKTLIDSFKQVESSNSEVYVFPTSLHISLVKEFFGNDHPGVFKIGSQNISCTGNGAFTGEVSCEMLKDMDVDCSLVGHSERRQYYSETDQIVNNKVKKGLENGLKIVLCIGESLSERETGKTNDVIQKQLTEALKDVSDLSNLVIAYEPIWAIGTGVVATPGQAQEAHAFIREYVTRMYNPQVSSNLRIIYGGSVTPDNCNELIKCADIDGFLVGGASLKPTFAKIIESAQ” the protein production was “not failed”. With “MSRLSAAAIELFEDLIRQQVEDKAIPSISYGLVDRDGLMGAGHIQRHDRGFVMGDDTCFRIGSITKTFTAVAVMQLAEKGLVDLDVDVSEYLPGFKPQNPFAGREGGPHGAQISLRKLMSHTAGLVREPKSGHYLDAARPPLADTVAELATSTLKQDPSLGQMHYSNAGIAVAGRVIETLTRKSYAEYVSENILKPLGMDQTSSGLAPGIAERLAPADMWTLEGDSPAPVFDLGGPPAGNIYSTTSDMARYVQCLLRGGFAPDGWQIVSPGSLREMWVPIGKRASGERVANTYGLCFGVGDVDGWTSVGHGGAVYGYSSQMILLPAAGVGVLIFSTLDFSNQIGARLGVEGLRIALAERRMGTLPVRPQGLPPVAADQLVALPGHYRHDTSGEVVEVKAKAGKLFLMGEGVPLQIRPVAGSDFTIDGRIYGHGAEYPHMNLSFPAPGALVWKGVNWSRIDALPAEAVPAEIAPHLGEYGPDFNITYLSYSHGELKCLIEYFCTHGCEPVEAGRFRMRGLLYEEEILEIDAIDDHGRRGIRVGPMFLERRHAPAA” the protein production was “failed”. With “MSRQQNEEDTNSVLFDARNEYYIGNFMGSINFVLPEQGTAGPELLSYMYLSYLAIDSGRIVASDIKEGNSTPLQALRLVHEAFEQPSRTEELLEKLTDKVAGEEDETNIWHLATAIVYCHDGQFENALKILHGSTNLESMALSVQCLLRLQRVDLAKQLVAKMQEISDDATLTQLAQAWVALAQGTEQMQDAFHIYQEFCEKFKPTPALLNGQAVVHLGLERYEEADSVLRESLLKKHNDYDTLINLMVHAHLTGKPTEAITRNLEQLRQFYPKSDFVTDLDKKSAEFDRLCLQYDVEGGEKLLAV” the protein production was “failed”. With “MSRRDQLFSAMTASYVIAVTLAIVIAAIFAPVIWNGVPSGGDDDPSVAVITLRGGTTDANVNAVKQDLREARTNESIEAVVLRVDSPGGPVDSSEEFYLAVNRTASEMPVVAYVEGTAASGGYYGITPADEIVVKPSSNVGSIGVIVQAPLSLIEQVEQQGETFVRSGPDKAQISKDSLREDIEVLQRSFVGTVMRHRGEQLTVSREEVANGGTYLGAQATENGFADRIGDTGLAIERAAALSDDIEGDQYDVVYQGSGGAEFNVIIVPAGAETVQGANNVTYLVHPDNSETTFREPVKYYAVWGIPAEDNNATVIRND” the protein production was “failed”. In the case of “MSRRKKAYQGRKIGSQLLATLESEARKKVGYLQVKTVAEGSNKDYDRTNDFYRGLGFKKLEIFPQLWNPQNPCQILIKKLE”, the protein production was “failed”. For “MSRRTTLRRVGLLVLGVNLLLVLLKAGVWLTTGSFAVQSEAVNSAADTAYSLVIVAGLYLTTRPPDFEHPHGHERIEPFVSLFVAAGIFAAGGFVLWNAGTALLTGNISVTQGPAAVLVLAFSAVAKYALYRYCLRAGTDRNSPALIATAKDNRNDILTAGAALVGVGGAMAGYPIADPLAALVVAIGIIYTGIEVVQENVTYLVGGAPPEDLRREILRRALDHPKVSGAHDVIAHYVGPEIDVSLHIEVEGDLTLFEAHDIETAVIKSIEELPEVDDAFIHVDPKELGEWKDDEEVERLADLE”, the protein production was “failed”. For “MSRSLVFGTAGLALLLAAGGLLYSFGPDERRARAAPTPPDTTDTSGVYSQRAPSRNGIGKVYMGREISKVMGHRGANWLERPARAEKERPDLLVDSLPLGPSDTVADIGAGTGYLSFRVAPRVPQGNILAVDIQPEMLNMMRERIDERGVDNVTPIRGTVTDPQLPADSVDLAYMVDAYHEFSHPYEMMTALMEDLTPGGRVVLVEYPREDPSIPIKTLHKMTEAQAKKEMRAVGLEWVETKDMLPRQHFMVFRKPVE”, the protein production was “failed”. For “MSRSRHCPAVLIAAPASGQGKTTVTAALARLHRNLGRKVRVFKCGPDFLDPMILERASGAPVYQLDLWMIGAEESRRLLWEAAGEADLILIEGVMGLFDGTPSSADLARHFGVPVLAVIDGTAMAQTFGALALGLARYQADLPFAGVLANRVGSLRHAQLLEGSLTEGLRWYGGLSRERGIELPSRHLGLVQASELNDLDTRLDAAAEALGASCDAALPPPVSFAEPEPQACVASLAGVRIGVARDEAFAFIYGANLDLLRNLGAQLVFFSPLHDHELPAVDSLYLPGGYPELHHHALAANAPMCEAIRAHHAQGKPLLAECGGMLYLLDALTDVAGERAELLGLLPGEATMQKRLAALALQAVELPEGTLRGHTYHHSLTSTALEPIARGLSPNGGRGNEAVYRLGRLTASYVHFYFPSCPDAAAALLRP”, the protein production was “failed”. For “MSRSTLQPARISRVLPDSIAAEIGFEPGDAIISINGQQPRDLIDYQFLCSDEFLELEVLDAAGRSHQIEIEKDTDEGLGLEFETALFDGLIQCNNRCPFCFIDQQPPGKRESLYYKDDDYRLSFLYGSYLTLTNLSEAEWRRIAQLRLSPLYVSVHATEPDLRRRLLKNERAGLIGEQLHWFRQQQLQIHAQVVVCPDLNDGAQLQRTLMDLAEFHRGDPATVASVAVVPVGLTRFRPTEDELRPVQPADAAATIALVEALQTQFQTELGSRFAWLADEWYLIAGQPLPSASWYEQYPQLENGVGSIRAFISEFERQAATLPSQIEPARRLTWVVGNVVGQAFQPLQARLNAVQGLKVDLVGLASRYWGQTLTVTGLLTGQDLIEVLSDRDLGDGLLLPSLILLHGYRCFLDDLTVAEVEKALHTPIFVAEGITGLLTECLRSPLAATVQDH”, the protein production was “failed”. For “MSRSTRSDQNARIRQRLGQPESGWRQRWYTIIFEADTRPGRTFDIVLLVAIIASVAVVMLDSIQAIHARLGTVFTALEWLFTLLFTTEYIMRLSVVRRPLRYVFSFYGIIDFLSIIPTWASFFVPELAFLIDVRLLRLLRVFRILKLTVYFEEAEILMLALSNSRRKIFVFLGTVFIITVILGTIMYVVEGPTHGFTSIPVSMYWAIVTLTTTGFGDMVPKTPIGQFITSITILLGYGIIAFPTGIVGAELAASIIRRPLTTRSCEHCLTEGHEPDATFCKHCGTALPEYRTELATDRRGDDGSRSR”, the protein production was “failed”. With “MSRTILQPGQIEAAANIPPHLHQPSRDLFARRGERLLQLAEGHPMGDYLRLVAGLCRLQQALLDNPPALAPLDPERLRKSREHGMPPLAYDLLVREGAWLPWLDALLAGYPAPANAAVGAALEQLREAEEGQRKAWAIALLSGQFDLLPAALVPFLGAALQVAWSHWLLGLEEGAVVETESRTLCPACGSPPMAGMIRQGGKETGLRYLSCSLCACEWHYVRIKCSHCEESKHLAYLSLEHDGQPAEKAVLRAETCPSCQGYLKQFYLEFDRHADALADDLASLALDMRLAEDGYLRRSPNLLLAPGGE” the protein production was “not failed”. In the case of “MSRVAPRDSAAQAASAVAESVRYQGRKASRQGSEQRRQAILDAAMRLIVRDGVRAVRHRAVAAEAQVPLSATTYYFKDIDDLITDTFALFVERNAEALSAFWSSVEGDLQEMAAVLADDPGARGSLVERIVELAVQYVQVQLTERREHLLAEQAFRQEALLNPRLRELADAHQRILSLGAVHFFQVLGSGQPEQDAKVLTSIILQMEYQGLVDGVEQLAVDEMRAILRRYLNLVMGL”, the protein production was “not failed”.
